Experiment: soluble on expression in E. coli; label from the status in PepcDB or PDB records

Row | Sequence | soluble on expression in E. coli
1 | MGKLAFLFPGQGSQAVGMGKQLAENNKEVANVFAKADEVLQDSLSEVIFEGSQEKLTLTTNAQPALLTTSFAILTALKEYDITPDFVAGHSLGEYSALVAAGALTFEDAVYAVRKRGEYMEEAVPGGEGAMAAILGADPHMLKRVTEEVTGEGYAVQIANMNSTKQIVISGTKQGVEIASQRAKENGAKRAIPLKVSGPFHSALMKPAAEKFQSVLNEITIQDTNIPVIANVTADVITSGAHIQEKLIEQLYSPVLWYPSIEYMVNQGVDTFIEIGPGKVLAGLMKSIDSSVKAYAIYDEETLKDTISNLRGEN | not soluble
2 | MDEIEKNNGEIIIYRTEDGRTQLEVRLENENVWLSQQQMSELFQTSRTNIVEHIKHIFEEGELEENSTCQIFRQVRIEGTRKVERSIPFYNLDMIISLGYRVKSRVATHFRRWATERLKEYLIKGFAMDDQRLKEIGGGGYWYELLNRIRDIRSSEKVLYRQVLDLYATSVDYDPKADESIRFFKIVQNKLHYAAHGHTAAEVIFERADAEKPFMGLATFPGEQPRKEDVLIAKNYLNEKELKILNNLVSGYFDFAEIQAIKRSPMYMSDYIHHLDLILSTTGEQVLQNAGTISHEQAKQKALGEYRKYHVKTLSPVEEAYFDSIKKLTAETKKKKKK | not soluble
3 | MGSDKIHHHHHHMPGSQQSLPLAMVRGQALNSMPVDLFIPPEALEVFLETFEGPLDLLLYLIRKQKLDVVDLPIQQITQQYLLYIEILTEARIELAADYLVMAATLAEIKSRLLLPKMASEDDEEEDPRVVLIRQLKAYEVIKQAAVDIDTLPRIERDVFQASVSAAPDIKPITVPPEVSLVDIARAFGEVLKRIDANEDHHVKREHLSTRERMSQILAKLSSTEYIGFECLFDVSEGRAGVVVSFLALMELVKELLVELVQNEPFSPIYVKAY | not soluble
4 | YLASDGKTIIMVGRNNLQNEELTFKIAKKGELWFHAKDIPGSHVVIKDNLNPTDEVKTDAAELAAYYSKARLSNLVQVDMIDVKKLNK | not soluble
5 | MSQQIQMKSVIDVKFPTHLFSPLATSSPKLTRMRAPIRDQSWSSCSDDSSGNLTSQAITGVDDSHIEATKLENESSTSSCSMHTALEFVNSSIFERVRSYSEVITREELQSAIFERKLTETDCSKEEAEMYSIIVTERILWTAGRTWTGTIQVKTKDLLNDYVRYACEDWYMKHTGQLCAVELNHIGKWDEIFDSNAIAIYCYETGIPTIIVDRIFSSNLVRRSTGNYLDTKEVTWLIFAMIGTDENQSIEYWFRVLDVQSTGILQLDDLRMFYDAITKFLVNNNVQSLPFENAIAQFRDILGTDKWNLQSFKKNSQLAFRVINGFVCALRFLEQEICEKTNTERQDDEEFGMVRTRWQRLIDHKFDDYYAQSSTSSSGSFNINNEPINPV | not soluble
6 | MSLKVGECMTKFNWHESAEKKWDSSAEFWNQNSQEMWDSGSRSTIIPFFEQYVKKEAEVLDVGCGDGYGTYKLSRTGYKAVGVDISEVMIQKGKERGEGPDLSFIKGDLSSLPFENEQFEAIMAINSLEWTEEPLRALNEIKRVLKSDGYACIAILGPTAKPRENSYPRLYGKDVVCNTMMPWEFEQLVKEQGFKVVDGIGVYKRGVNEKMLGQLSTDLQQSLTFLWVFMLKRHKEMKEFLGGKEGHHHHHH | soluble
7 | MAAINTKVKKAVIPVAGLGTRMLPATKAIPKEMLPLVDKPLIQYVVNECIAAGITEIVLVTHSSKNSIENHFDTSFELEAMLEKRVKRQLLDEVQSICPPHVTIMQVRQGLAKGLGHAVLCAHPVVGDEPVAVILPDVILDEYESDLSQDNLAEMIRRFDETGHSQIMVEPVADVTAYGVVDCKGVELAPGESVPMVGVVEKPKADVAPSNLAIVGRYVLSADIWPLLAKTPPGAGDEIQLTDAIDMLIEKETVEAYHMKGKSHDCGNKLGYMQAFVEYGIRHNTLGTEFKAWLEEEMGIKK | soluble
8 | MGSDKIHHHHHHMETARHRNTWHIHPDPEALARRLAAAVARMAREAITARGAFHLVVAGGTTPRAAYALLPQLGSDWQCWHLYHGDERCLPPQDPDRNSLMLDTVWLSRVPIPTRQIHHIPAERGADVAARDYAAVLPPHAFDLVLLGVGEDGHTASLFPGHDWGMAKNGPATIAVHDAAKAPPQRVSLSGWRLQYTREMFFMAAGGGKRSALTAWRQGEPIPAATVGTTADIWLDNTAWPEVVPGTI | not soluble
9 | MSLATLQDLDLTGNTNLVLEHKTLDIFSHITTLKIDQKPLPTTDSTVTSTFWSHGLAEMAGQRNKLCVSALAMDSFAEGVGAVYGMFDGDRNEELPRLLQCTMADVLLEEVQQSTNDTVFMANTFLVSHRKLGMAGQKLGSSALLCYIRPDTADPASSFSLTVANVGTCQAVLCRGGKPVPLSKVFSLEQDPEEAQRVKDQKAIITEDNKVNGVTCCTRMLGCTYLYPWILPKPHISSTPLTIQDELLILGNKALWEHLSYTEAVNAVRHVQDPLAAAKKLCTLAQSYGCQDNVGAMVVYLNIGEEGCTCEMNGLTLPGPVGFASTTTIKEGHHHHHH | soluble
10 | SCEGPSRISGPIPPDPTLCPDNYRRPTSAQGRLEGNALKLDLLTSDRALDTTAPRGPCIGPGAGEILERGQRGVGDVLLQLEGISLGPGASLKRKDPKDHEKENLRRIREIQKRFREQERSREQGQPRPLKALWRSPKYDKVESRVKAQLQEPGPASGTESAHFLRAHSRCGPGLPPPHVSSPQPTPPGPEAKEPGLGVDFIRHNARAAKRAPRRHSCSLQVLAQVLEQQRQAQEHYNATQKGHVPHYLLERRDLWRREAEARKQSQPDPAMPPGHTRMPENQRLETLTKLLQSQSQLLRELVLLPAGADSLRAQSHRAELDRKLVQVEEAIKIFSRPKVFVKMDD | soluble
11 | SNAMKWKKSLAGLSSYKPGKREEEVMAELGLTKITKLSSNENPLGTSKKVAAIQANSSVETEIYPDGWASSLRKEVADFYQLEEEELIFTAGVDELIELLTRVLLDTTTNTVMATPTFVQYRQNALIEGAEVREIPLLQDGEHDLEGMLNAIDEKTTIVWICNPNNPTGNYIELADIQAFLDRVPSDVLVVLDEAYIEYVTPQPEKHEKLVRTYKNLIITRTFSKIYGLASARVGYGIADKEIIRQLNIVRPPFNTTSIGQKLAIEAIKDQAFIGECRTSNANGIKQYEAFAKRFEKVKLYPANGNFVLIDLGIEAGTIFSYLEKNGYITRSGAALGFPTAVRITIGKEEDNSAVIALLEKLL | soluble
12 | QSELTQPRSVSGSPGQSVTISCTGTSRDVGGYNYVSWYQQHPGKAPKLIIHDVIERSSGVPDRFSGSKSGNTASLTISGLQAEDEADYYCWSFAGSYYVFGTGTDVTVLGQPKANPTVTLFPPSSEELQANKATLVCLISDFYPGAVTVAWKADGSPVKAGVETTKPSKQSNNKYAASSYLSLTPEQWKSHRSYSCQVTHEGNTVEKTVAPT | soluble
13 | GSDDINQKVAEQLAQKAQSSSLGYDIVESLTVEVGPRLAGSEQDKVAVDWAIAKLQSLGFDRVYKEPVTVPVWRRGIAKASILSPFPQPLVVTALGGSIATPAQGLSATIVRFDTLQDLQNAEAGSLNDKIAFIDAKTERHRDGKGYGQTASGRSRGAVAAAEKGAVGIIIRSIGTDHDRMAHTGMMRYEEGVTAIPAAAISNPDADLINAMLKRDKEVVISLELGSERRGETTSYNVIAEVKGSTKADEIVLIGAHLDSWDEGTGAIDDGAGVAIVTAAAKHILDLPQKPERTIRVVLYAAEELGLLGGKTYAKEHEAELEKHYIAAESDFGAGPIYQIDWRVADTAHSPVINAMKVAEPLGVAAGNNKASGGPDVSMLPALGVPVASLRQDGSDYFDYHHTPNDTLDKINPEALAQNVAVYAQFAWVMANSKVELRPLPPKE | soluble
14 | MSEEIKPSAPDAPTASPIVTRDEQNLVVSFLQFIRQKVSQNQATAEQAEALEVAIQCLEHSFGLDDASYAFQPSRPILELFKSAEGLPEGESALPTPSDSDISQANKLKEEGNDLMKASQFEAAVQKYNAAIKLNRDPVYFCNRAAAYCRLEQYDLAIQDCRTALALDPSYSKAWGRMGLAYSCQNRYEHAAEAYKKALELEPNQESYKNNLKIAEDKLKELESSRPAPGANPLAGLLGAMGGGPGGMPAMPGMPNMQNLMNEPGLMQAASQMMSDPALSDMFNNMMSGNGSIADLMAAGQQMAARMQETNPELIENLRRQFGPGADGGAPPPNPPQ | not soluble

Reference: the DeepSol protein solubility set
